The target of test [1] is Human surfactant protein A (native SP-A) (human) (UniProt Q8IWL2). Briefly: other fluorescence titration; intrinsic tryptophan fluorescence of SP-A (75 nM) or rfhSP-A (52 nM) titrated with LL-37; 25°C, 5 mM Tris-HCl pH 7.4, with 150 mM NaCl; excitation 295 nm; fit to the Hill equation; apparent KD.
For test [2], the target named is Recombinant trimeric fragment of human SP-A1 (rfhSP-A) (human). The test is described as above.
For test [3] the target is unchanged. Briefly: other fluorescence titration; intrinsic tryptophan fluorescence of SP-A (75 nM) or rfhSP-A (52 nM) titrated with LL-37; 25°C, 5 mM Tris-HCl pH 7.4, without NaCl; excitation 295 nm; fit to the Hill equation; apparent KD.
Test [4] addresses Human surfactant protein A (native SP-A) (human) (UniProt Q8IWL2). In words: native gel or EMSA + AUC + other: electron microscopy; degree of oligomerization of isolated SP-A: electrophoresis under nondenaturing conditions, electron microscopy and analytical ultracentrifugation, as reported elsewhere (refs 28, 29).

For the substance Human cathelicidin LL-37 (peptide), the Kd came to 0.45 nM in test [1], 1.2 nM in test [2] and 0.0735 nM in test [3].
On to “Human surfactant protein A (native SP-A) (from UniProt Q8IWL2 21-248) (natural protein)”, for which, in test [4], the stoichiometry N was above 18 subunits.

Source of the values: publication PMC9464622, “The collectin SP-A and its trimeric recombinant fragment protect alveolar epithelial cells from the cytotoxic and proinflammatory effects of human cathelicidin in vitro” (Frontiers in Immunology, 2022).
